Measured values from the RNAGym collection of RNA variant scans (doi:10.1073/pnas.2313332121).

B1: TPR t1 (parent)
chain: GACCAAUCUGCCCUCAGAGCUCGAGAACAUCUUCGGAUGCAGAGGAGGCAGGCUUCGGUGGCGCGAUAGCGCCAACGUCCUCAACCUCCAAUGCAUCCCACCACAUGAUGAUGCCUGAAGAGCCUUGGUUUUUUG

Variants of: B1
Test: polymerase ribozyme fitness, log enrichment relative to wild type (log ratio); higher = more active; in vitro selection for triplet polymerase activity
Outline: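 Fitness compares each genotype's enrichment to that of the wild type on a logarithmic scale, averaging replicates with inverse-variance weights. The logarithm is base 2. Enrichment came from Illumina sequencing of input and output libraries after one triplicate round of in vitro selection, which included frozen incubation at −7 °C, of PCR-built, transcribed mutant libraries of each subunit of a heterodimeric triplet polymerase ribozyme. Only genotypes with ≥10 input reads and ≥1 read per output were kept.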

Variant | polymerase ribozyme fitness (log ratio)
GACCAAUCUGCCCUCAGAGCUCGAGAACAUCUUCGGAUGCAGAGGAGGCAGGCUUCGGUGUCGCGAUAGCGCCAACGUCCUCAACCUCCAAUGCAUACCCCCACAUGAUGAUGCCUGAAGAGCCUUGGUUUUUUG [G61U C97A A100C] | -3.32
GACCAAUCUGCCCUCAGAGCUCGAGAACAUCUUCGGAUGCAGAGGAGGCAGGCUUCGGUGUCGCGAUAGCGCCAACGUCCUCAACCUCCAAUGCAUCCCACCGCAUGAUGAUGCCUGAAGAGCCUUGGUUUUUUG [G61U A103G] | -4.75
GACCAAUCUGCCCUCAGAGCUCGAGAACAUCUUCGGAUGCAGAGGAGGCAGGCUUCGGUGCCGCGAUAGCGCCAACGUCCUCAACCUCCAAUGCAUCCCACCACACGAUGAUGCCUGAAGAGCCUUGGUUUUUUG [G61C U106C] | -2.89
GACCAAUCUGCCCUCAGAGCUCGAGAACAUCUUCGGAUGCAGAGGAGGCAGGCUUCGGUGUCGCGAUAGCGCCAACGUCCUCAACCUCCAAUGCAUCCCACCACAUGAUGAUGCCUGAAGAGUCUUGGUUUUUUG [G61U C123U] | 1.8
GACCAAUCUGCCCUCAGAGCUCGAGAACAUCUUCGGAUGCAGAGGAGGCAGGCUUCGGUGCCGCGAUAGCGCCAACGGCCUCAACCUCCAAUGCAUCCCACCACAUGAUGAUGCCUGAAGAGCCUUGGUUUUUUG [G61C U78G] | -4.7
GACCAAUCUGCCCUCAGAGCUCGAGAACAUCUUCGGAUGCAGAGGAGGCAGGCUUCGGUGUCGCGAUAGCGCCAACGUCCUCAACCUCCAAUGUAUCCCACCACAUGAUGAAGCGUGAAGAGCCUUGGUUUUUUG [G61U C94U U112A C115G] | -0.199
GACCAAUCUGCCCUCAGAGCUCGAGAACAUCUUCGGAUGCAGAGGAGGCAGGCUUCGGUGCCGCGAUAGCGCCAACGUCCUCAACCUUCAAUGCAUCCCACCACAUGAUGAUGCCUGAAGAGCCUUGGUUUUUUG [G61C C88U] | -1.5
GACCAAUCUGCCCUCAGAGCUCGAGAACAUCUUCGGAUGCAGAGGAGGCAGGCUUCGGUGUCGCGAUAGCGCCAACGUCCUCAACCUCCAAUGCAUCCAACCACAUGAUGAUGCAUGAAGAGCAUUGGUUUUUUG [G61U C99A C115A C124A] | -4.46
GACCAAUCUGCCCUCAGAGCUCGAGAACAUCUUCGGAUGCAGAGGAGGCAGGCUUCGGUGUCGCGAUAGCGCCAACGUCCUCAACCUCCAAUGCAUCCCACCACAUGAUGAUGCCUGAAGAGCAUUGGUUUUUUG [G61U C124A] | 1.54
GACCAAUCUGCCCUCAGAGCUCGAGAACAUCUUCGGAUGCAGAGGAGGCAGGCUUCGGUGUCGCGAUAGCGCCAACGUCCUCAACCUCCAAUGCAUCCCACCACAUUAUGAUGCCUGAAGAGCCUUGGUUUUUUG [G61U G107U] | -4.51
GACCAAUCUGCCCUCAGAGCUCGAGAACAUCUUCGGAUGCAGAGGAGGCAGGCUUCGGUGUCGCGAUAGCGCCAACGUACUCAACCUCCAAUGCAUCCCACCAUAUGAUGAUGCCUGAAGAGCCUUGGUUUUUUG [G61U C79A C104U] | -0.851
GACCAAUCUGCCCUCAGAGCUCGAGAACAUCUUCGGAUGCAGAGGAGGCAGGCUUCGGUGCCGCGAUAGCGCCAACGUCCUCAACCUCCAAUGCAUCCCACCACAUGAUGAUGCCUGAAGAGACUUGGUUUUUUG [G61C C123A] | -0.578
GACCAAUCUGCCCUCAGAGCUCGAGAACAUCUUCGGAUGCAGAGGAGGCAGGCUUCGGUGCCGCGAUAGCGCCAACGUCCUCAACCUCCAAUGCAUCCCACCACAUGAUGAUGCCUGAAGAGCCUUGGAUUUUUG [G61C U129A] | -3.33
GACCAAUCUGCCCUCAGAGCUCGAGAACAUCUUCGGAUGCAGAGGAGGCAGGCUUCGGUGCCGCGAUAGCGCCAACGUCCUCAACCUCCAAUGCAUCCCACCACAUAAUGAUGCCUGAAGAGCCUUGGUUUUUUG [G61C G107A] | -6.66
GACCAAUCUGCCCUCAGAGCUCGAGAACAUCUUCGGAUGCAGAGGAGGCAGGCUUCGGUGUCGCGCUAGCGCCAACGUCCUCAACCUCCAAUGCAUCCCACCACAUGAUGAUGCCUGAAGAGCCUUGGUUUUUUG [G61U A66C] | -3.18
GACCAAUCUGCCCUCAGAGCUCGAGAACAUCUUCGGAUGCAGAGGAGGCAGGCUUCGGUGUCGCGAUAGCGCCAACGUCAUCAACCUCCAAUGCAUCCCACCACAUGAUGAUGCCUGAAGAGCCUUGGUUUUUUG [G61U C80A] | -2.59
GACCAAUCUGCCCUCAGAGCUCGAGAACAUCUUCGGAUGCAGAGGAGGCAGGCUUCGGUGCCGCGAUAGCGCCAACGUCCUCAACCACCAAUGCAUCCCACAACAUGAUGAUGCCUGAAGAGCCUUGGUUUUUUG [G61C U87A C102A] | -5.28
GACCAAUCUGCCCUCAGAGCUCGAGAACAUCUUCGGAUGCAGAGGAGGCAGGCUUCGGUGCCGCGAUAGCGCCAACGUCCUCAACCUCAAAUGCAUCCCACCACAUGAUGAUGCCUGAAGGGCCUUGGUUUUUUG [G61C C89A A121G] | -2.4
GACCAAUCUGCCCUCAGAGCUCGAGAACAUCUUCGGAUGCAGAGGAGGCAGGCUUCGGUGCCGCGAUAGCGCCAACGACCUCAACCUCCAAUACAACCCACCACAUGAUGAUGCCUGAAGAGCCUUGGUUUUUUG [G61C U78A G93A U96A] | -1.93
GACCAAUCUGCCCUCAGAGCUCGAGAACAUCUUCGGAUGCAGAGGAGGCAGGCUUCGGUGCCGCGAUAGCGCCAACGUCCUCAACCUCAAAUGCAUCCCACCACAUGAUGAUGCCUGAAGAGCCUUGGUUUUUUG [G61C C89A] | -3.5
GACCAAUCUGCCCUCAGAGCUCGAGAACAUCUUCGGAUGCAGAGGAGGCAGGCUUCGGUGUCGCGAUAGGGCCAACGUCCUCAACCUCCAAUGCAUCCCACCACAUGAUGAUGCCUGAAGAGCCUUGGUUUUUUG [G61U C70G] | -4.08
